In publication PMC9116609 (Science Advances, 2022):

T1: shcis-PT (soluble human cis-prenyltransferase complex, DHDDS-NgBR) (Homo sapiens, UniProt Q86SQ9)
T1 sequence (Q86SQ9 1-333): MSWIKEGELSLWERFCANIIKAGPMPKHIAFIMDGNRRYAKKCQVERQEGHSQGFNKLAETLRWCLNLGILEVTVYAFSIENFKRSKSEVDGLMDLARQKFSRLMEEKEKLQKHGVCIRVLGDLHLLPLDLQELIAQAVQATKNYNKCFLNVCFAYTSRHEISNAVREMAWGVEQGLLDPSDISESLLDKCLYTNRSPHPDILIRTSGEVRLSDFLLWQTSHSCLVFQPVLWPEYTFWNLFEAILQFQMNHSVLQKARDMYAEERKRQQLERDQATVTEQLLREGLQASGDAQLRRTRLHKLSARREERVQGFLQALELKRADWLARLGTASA
T1 sequence (Q96E22 73-293 partner): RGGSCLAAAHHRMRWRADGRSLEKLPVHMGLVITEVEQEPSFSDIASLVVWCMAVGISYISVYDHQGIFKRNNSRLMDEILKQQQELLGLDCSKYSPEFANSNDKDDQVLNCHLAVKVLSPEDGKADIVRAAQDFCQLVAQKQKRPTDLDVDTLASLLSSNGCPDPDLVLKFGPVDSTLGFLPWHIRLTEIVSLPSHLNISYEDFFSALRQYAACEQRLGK

B1: Nogo B-receptor (NgBR), pseudo cis-prenyltransferase domain, residues 73 to 293 lacking residues 167 to 175 (domain or fragment)
chain: RGGSCLAAAHHRMRWRADGRSLEKLPVHMGLVITEVEQEPSFSDIASLVVWCMAVGISYISVYDHQGIFKRNNSRLMDEILKQQQELLGLDCSKDKDDQVLNCHLAVKVLSPEDGKADIVRAAQDFCQLVAQKQKRPTDLDVDTLASLLSSNGCPDPDLVLKFGPVDSTLGFLPWHIRLTEIVSLPSHLNISYEDFFSALRQYAACEQRLGK
B2: dehydrodolichyl diphosphate synthase (DHDDS), residues 1 to 333 (enzyme)
chain: T1 sequence (Q86SQ9 1-333)

Assays:
[1] = molecular target: T1, shcis-PT (soluble human cis-prenyltransferase complex, DHDDS-NgBR); assay: displacement of MANT-O-GPP followed by FRET; type: binding; settings: competition with 10 μM MANT-O-GPP; pH 7.5, 0.5 mM MgCl2, 1 μM enzyme; S1 site
[2] = molecular target: B2; assay: crystal structure
[3] = molecular target: the molecule itself; assay: crystal structure

CC(C)=CCC/C(C)=C/CC/C(C)=C/CO[P@@](=O)(O)OP(=O)(O)O [FPP]
IC50 [1]: 10.5 ± 3 µM

B1
binding result [2]: binds

B2
binding result [3]: binds
